Data as given in patent publication US20060142171A1, “Novel alkaline protease” (priority 2003, published 2006).

Assays:
[1] = substrate: CCCC(=O)Oc1ccc([N+](=O)[O-])cc1; assay: Assay with synthetic peptide, pNA, AMC, NNap and ester substrates (kinetic parameters); assay type: biochemical, Nesterenkonia sp. AL; details: other: substrate marked b (footnote not given), 50 mM Tris-HCl buffer, pH 9
[2] = molecular target: T1, N-succinyl-Ala-Ala-Pro-Leu-p-nitroanilide
T1 chain: AAPL

[3] = molecular target: T2, N-succinyl-Leu-Leu-Val-Tyr-7-amino-4-methyl coumarin
T2 chain: LLVY

[4] = molecular target: T3, N-succinyl-Ala-Ala-Phe-7-amino-4-methyl coumarin
T3 chain: AAF

[5] = molecular target: T4, N-succinyl-Ala-Ala-Pro-Phe-p-nitroanilide
T4 chain: AAPF

[6] = molecular target: T5, N-succinyl-Phe-Leu-Phe thiobenzyl ester
T5 chain: FLF

[7] = molecular target: T6, N-succinyl-Leu-Tyr-7-amino-4-methyl coumarin
T6 chain: LY

[8] = Circular dichroism spectroscopy; assay type: physicochemical
Method: The conformational stability of the AL protease was examined by circular dichroism (CD) spectroscopy and compared with that of Subtilisin Carlsberg (bacterial protease, type VIII; Sigma Chemical Co., St. Louis, USA). The CD spectra of the proteins were obtained on a Jasco spectropolarimeter model J-720, at 25° C. in the far UV range from 195 to 250 nm at a scan rate of 10 nm/min using a sample cell path length of 0.1 cm. The ellipticity values (θ) for every nm wavelength increase were obtained in mdeg directly from the instrument and were recorded online in a computer. An average of 6 scans was calculated and the corresponding no-enzyme spectra were subtracted for each sample.

[9] = Autolytic degradation by SDS-PAGE; assay type: physicochemical; details: incubation at 50° C. up to 24 h; not shown
Method: Autolytic degradation of the protease was investigated by SDS-PAGE. The AL protease and Subtilisin Carlsberg were individually incubated in 10 mM Tris-HCl buffer 8 for 24 h at 50° C. Electrophoresis of the enzyme samples taken at different time intervals was performed according to the method of Laemmli, on 12% polyacrylamide gel using a Mini Protean II equipment (Bio-Rad, Richmond, Calif.).

[10] = Differential scanning calorimetry; assay type: physicochemical
Method: The influence of different parameters including pH, calcium ions, EDTA, and detergent on thermal stability of the AL protease was investigated by differential scanning calorimetry (DSC). Comparative studies were also performed with Subtilisin Carlsberg. Thermal scans of AL protease (0.3 mg protein/ml) and subtilisin (2.5 mg protein/ml in the presence of 1 mM phenyl-methanesulfonyl fluoride (PMSF); Sigma) were performed by increasing temperature from 25° C. to 95° C. at a scan rate of 1° C. per min on a VP-DSC (MicroCal, Northampton, Mass.). The thermograms were corrected by subtracting the base line, obtained from a blank scan of the no-enzyme solution, and normalized for protein concentration. The unfolding transition of the AL protease was fitted to a two-state model. The Tm (temperature at which heat capacity change is a maximum), the calorimetric (or true) enthalpy ΔHcal (peak area), and van't Hoff (or apparent) enthalpy AHVH (calculated from the shape of thermogram) were calculated using the Origin software provided by MicroCal.

[11] = 0.1% (w/v) SDS vs untreated, pH 10.0
[12] = untreated, 10 mM glycine-NaOH buffer, pH 10.0 (subtilisin with 1 mM PMSF)
[13] = untreated, 10 mM glycine-NaOH buffer, pH 10.0 (subtilisin with 1 mM PMSF), listed as Subtilisin

B1: AL protease (alkaline protease from Nesterenkonia sp. nov. strain AL, DSM 15380) (protein)
chain: QNPADSPHIGKVFFSTNQGDFVCSANIVASANQSTVATAGHCLHDGNGGQFARNFVFAPAYDYGESEHGVWAAEELVTSAEWANRGDFEHDYAFAVLETKGGTTVQQQVGTASPIAFNQPRGQYYSAYGYPAAAPFNGQELHSCHGTATNDPMGSSTQGIPCNMTGGSSGGPWFLGQGTGGAQNSVNSYGYTFLPDVMFGPYFGSGAQQNYNYAST
Km [1]: 1.05 mM | kcat [1]: 63.7 s⁻¹ | kcat/Km [1]: 60800 M⁻¹ s⁻¹ | Km [2]: 9.3 mM | kcat [2]: 6650 s⁻¹ | kcat/Km [2]: 715 mM⁻¹ s⁻¹ | Km [3]: 0.015 mM | kcat [3]: 51.7 s⁻¹ | kcat/Km [3]: 3450 mM⁻¹ s⁻¹ | specific activity toward synthetic substrate [4]: only able of hydrolysing those substrates at a very low rate when high substrate concentration (10 mM) was used; between 0.002 to 0.008 U/mg | Km [5]: 2.97 mM | kcat [5]: 4390 s⁻¹ | kcat/Km [5]: 1480 mM⁻¹ s⁻¹ | specific activity toward synthetic substrate [6]: only able of hydrolysing those substrates at a very low rate when high substrate concentration (10 mM) was used; between 0.002 to 0.008 U/mg | specific activity toward synthetic substrate [7]: only able of hydrolysing those substrates at a very low rate when high substrate concentration (10 mM) was used; between 0.002 to 0.008 U/mg

B2: Subtilisin Carlsberg: bacterial protease, type VIII; Sigma; one of the first commercial alkaline proteases (protein, UniProt P00780 106-379, looked up)
Subtilisin Carlsberg: AQTVPYGIPLIKADKVQAQGFKGANVKVAVLDTGIQASHPDLNVVGGASFVAGEAYNTDGNGHGTHVAGTVAALDNTTGVLGVAPSVSLYAVKVLNSSGSGSYSGIVSGIEWATTNGMDVINMSLGGASGSTAMKQAVDNAYAKGVVVVAAAGNSGSSGNTNTIGYPAKYDSVIAVGAVDSNSNRASFSSVGAELEVMAPGAGVYSTYPTNTYATLNGTSMASPHVAGAAALILSKHPNLSASQVRNRLSSTATYLGSSFYYGKGLINVEAAAQ
Secondary structure in the presence of SDS ([8]; 0.1-1% (w/v) SDS, data not shown): complete loss of secondary structure | Secondary structure after incubation ([8]; 24 h at 50° C., 10 mM glycine-NaOH buffer, pH 10.0): substantial loss of structure | Degradation on gel electrophoresis [9]: considerable degradation | Tm on addition of Ca^2+ ([10]; 1 mM PMSF present, pH 10.0): remained unchanged | Lowering of Tm ([10]; 10 mM EDTA, 1 mM PMSF present): 10 °C | ΔHcal ([10]; 10 mM EDTA, 1 mM PMSF present): 152 kcal/mol | Decrease in Tm [10, 11]: 13 °C | Decrease in ΔHcal [10, 11]: 59 kcal/mol | Further lowering in Tm ([10]; 0.2% SDS vs 0.1% SDS, pH 10.0): 3 °C | Further lowering in ΔHcal ([10]; 0.2% SDS vs 0.1% SDS, pH 10.0): 41 kcal/mol | Tm ([10]; +0.1% SDS, pH 10.0): 54.5 ± 0.02 °C | ΔHcal ([10]; +0.1% SDS, pH 10.0): 144 ± 0.5 kcal/mol | Tm ([10]; +0.2% SDS, pH 10.0): 51.1 ± 0.01 °C | ΔHcal ([10]; +0.2% SDS, pH 10.0): 103 ± 0.2 kcal/mol | Tm [10, 12]: 67.3 °C | ΔHcal [10, 12]: 203 kcal/mol | Tm [10, 13]: 67.3 ± 0.02 °C | ΔHcal [10, 13]: 203 ± 0.9 kcal/mol
